{"source": "patent US20220411492A1", "about": "(QILU PHARMACEUTICAL, published 2022)", "binders": {"B1": {"name": "ch-299B2-G33A (antibody, V domains shown)", "VH": "QVQLKQSGPELVRPGASVKLSCKTSGYIFTNYWIHWVKQRSGQGLEWVVRIYPGTGNTYYNEKFTGKATLTADKSSSTAYMQLSSLKYEDSAVYFCSREGYGKGNSMDYWGQGTSVTVSS", "VL": "DIVMTQSPSSLTVTAGEKVTMNCKSSQSLLNSANQKNYLTWYQQKPGQPPKLLFYWASTRESGVPDRFTGSGSGTDFTLTISSVQAEDLAVYHCQNAYYYPYTFGGGTKLEMK", "notes": "also called chimeric antibody of 299B2-G33A"}, "B2": {"name": "ch-299B2-S32A (antibody, V domains shown)", "VH": "B1 VH", "VL": "B1 VL with S32A, A33G", "notes": "also called chimeric antibody of 299B2-S32A"}, "B3": {"name": "ch-299B2-N31Q (antibody, V domains shown)", "VH": "B1 VH", "VL": "B1 VL with N31Q, A33G", "notes": "Light chain variable region mutant N31Q of 299B2; also called ch-299B2-X31Q; chimeric antibody of 299B2-N31Q"}, "B4": {"name": "ch-253C4 (antibody, V domains shown)", "VH": "QVQLKQSGAELVRPGASVSLSCKTSGYIFTSYWIHWVKQRSGQGLEWIGRFYPGTGTAYYNENFEGKATLTADRSSSTAYMQLSSLKSDDSAVYFCTREGYGKGNAMDYWGQGTSVTVSS", "VL": "DIVMTQSPSSLTVTTGEKVTLSCKSSQSLLNSGNQKNYLTWYQQKSGQPPELLIYWASTRESGVPDRFTGSGSGTDFTLTVSSVQAEDLAVYYCQNDYYFPFTFGGGTKLEIK", "notes": "also called chimeric antibody of clone 253C4"}, "B5": {"name": "ch-59F9 (antibody, V domains shown)", "VH": "QVQLQQSGAELMKPGASVKLPCKASGYTLTGYWIEWLKQRPRHGLEWIGEILLGSGSIKYNVKFKDKATFTADTSSNTAYMQLNSLTTEDSAIYYCARKGLRGNSFDYWGQGTTLTVSS", "VL": "B4 VL with T15A, L21M, N37S, S46P, E51K, L52R, V81I, F100Y, G106S", "notes": "also called chimeric antibody of clone 59F9"}, "B6": {"name": "ch-253C4-N31Q (antibody, V domains shown)", "VH": "B4 VH", "VL": "B4 VL with N31Q", "notes": "also called chimeric antibody of 253C4-N31Q"}, "B7": {"name": "ch-253C4-G33A (antibody, V domains shown)", "VH": "B4 VH", "VL": "B4 VL with G33A", "notes": "also called chimeric antibody of 253C4-G33A"}, "B8": {"name": "ch-253C4-S32A (antibody, V domains shown)", "VH": "B4 VH", "VL": "B4 VL with S32A", "notes": "also called chimeric antibody of 253C4-S32A"}, "B9": {"name": "ch-287F12 (antibody, V domains shown)", "VH": "QIQLVQSGPELKRPGETVRISCKASGFTFTTAGMHWVQKMAGKGLKWLGWTNTHSGEPKYAEDFKGRFAFSLDTSGSDAYLQIGNLKYEDAATYFCAKWGRGNALDYWGQGTSVTVSS", "VL": "DIVMTQSPSSLTVTAGEKVTMTCKSSQSLLNSGNQKNYLTWYQQKPGQPPKLLIYWASTRESGVPDRFTGSGSGTDFTLTINTVQAEDLAVYYCQNTYSYPLTFGGGTKLELR", "notes": "also called chimeric antibody of clone 287F12"}}, "key": {"[1]": {"biological_target": "T1, human Claudin 18.2 (hCLDN18.2) (human, UniProt P56856-2 1-261)", "T1 construct": "whole, on cells; also called CLDN18A2; claudin 18 splice variant 2", "experiment": "FACS, HEK293-hCLDN18.2 cells", "description": "Following transient expression in mammalian cell lines, affinity assays were performed using HEK293-hCLDN18.2 cells and monoclonal cell supernatants were screened by FACS."}, "[2]": {"biological_target": "murine CLDN18.2 (mCLDN18.2) (murine) (UniProt P56857)", "experiment": "FACS, HEK293-mCLDN18.2 cells"}, "[3]": {"biological_target": "T1, human Claudin 18.2 (hCLDN18.2)", "experiment": "cell-based or functional assay"}, "[4]": {"biological_target": "T1, human Claudin 18.2 (hCLDN18.2)", "experiment": "cell-based or functional assay", "remark": "listed apart in the source"}, "[5]": {"biological_target": "T1, human Claudin 18.2 (hCLDN18.2)", "experiment": "FACS, HEK293-hCLDN18.2 cells", "source_text": "(§1) FACS was used to detect the binding of anti-CLDN18.2 chimeric antibodies to HEK293 cells stably transfected expressing hCLDN18.2 (HEK293-hCLDN18.2) and gastric cancer tumor tissue-derived cells naturally expressing hCLDN18.2 (PDX-hCLDN18.2).", "remark": "listed apart in the source"}, "[6]": {"biological_target": "T1, human Claudin 18.2 (hCLDN18.2)", "experiment": "FACS, PDX-hCLDN18.2 gastric cancer tumor tissue-derived cells", "source_text": "as §1"}}, "note": "Numbering of substitutions follows the chain as printed. Names may count otherwise."}
{"binder": "B1", "values": [{"measurement": "EC50", "setting": "[1]", "result": 0.157, "unit": "µg/mL"}, {"measurement": "Mean maximum fluorescence intensity (Top MFI)", "setting": "[1]", "result": 6870, "unit": "MFI"}]}
{"binder": "B2", "values": [{"measurement": "EC50", "setting": "[1]", "result": 1.31, "unit": "µg/mL"}, {"measurement": "Mean maximum fluorescence intensity (Top MFI)", "setting": "[1]", "result": 6500, "unit": "MFI"}]}
{"binder": "B3", "values": [{"measurement": "binding result", "setting": "[1]", "result": "binds"}]}
{"binder": "B4", "values": [{"measurement": "EC50", "setting": "[2]", "result": 0.79, "unit": "nM"}, {"measurement": "Mean maximum fluorescence intensity (Top MFI)", "setting": "[2]", "result": 8330, "unit": "MFI"}, {"measurement": "ADCC EC50", "setting": "[3]", "result": 0.036, "unit": "µg/mL"}, {"measurement": "ADCC Maximum lysis (%)", "setting": "[3]", "result": 35.7, "unit": "%"}, {"measurement": "CDC EC50", "setting": "[4]", "result": 0.038, "unit": "µg/mL"}, {"measurement": "CDC Maximum lysis (%)", "setting": "[4]", "result": 95.2, "unit": "%"}, {"measurement": "EC50", "setting": "[5]", "result": 2.27, "unit": "nM"}, {"measurement": "Mean maximum fluorescence intensity (Top MFI)", "setting": "[5]", "result": 10300, "unit": "MFI"}, {"measurement": "EC50", "setting": "[6]", "result": 9.73, "unit": "nM"}, {"measurement": "Mean maximum fluorescence intensity (Top MFI)", "setting": "[6]", "result": 15500, "unit": "MFI"}]}
{"binder": "B5", "values": [{"measurement": "EC50", "setting": "[2]", "result": 1.22, "unit": "nM"}, {"measurement": "Mean maximum fluorescence intensity (Top MFI)", "setting": "[2]", "result": 11200, "unit": "MFI"}, {"measurement": "ADCC EC50", "setting": "[3]", "result": 0.023, "unit": "µg/mL"}, {"measurement": "ADCC Maximum lysis (%)", "setting": "[3]", "result": 29.4, "unit": "%"}, {"measurement": "CDC EC50", "setting": "[4]", "result": 0.091, "unit": "µg/mL"}, {"measurement": "CDC Maximum lysis (%)", "setting": "[4]", "result": 94.7, "unit": "%"}, {"measurement": "EC50", "setting": "[5]", "result": 2.41, "unit": "nM"}, {"measurement": "Mean maximum fluorescence intensity (Top MFI)", "setting": "[5]", "result": 9040, "unit": "MFI"}, {"measurement": "EC50", "setting": "[6]", "result": 12.4, "unit": "nM"}, {"measurement": "Mean maximum fluorescence intensity (Top MFI)", "setting": "[6]", "result": 18100, "unit": "MFI"}]}
{"binder": "B6", "values": [{"measurement": "EC50", "setting": "[1]", "result": 0.175, "unit": "µg/mL"}, {"measurement": "Mean maximum fluorescence intensity (Top MFI)", "setting": "[1]", "result": 6560, "unit": "MFI"}]}
{"binder": "B7", "values": [{"measurement": "EC50", "setting": "[1]", "result": 0.187, "unit": "µg/mL"}, {"measurement": "Mean maximum fluorescence intensity (Top MFI)", "setting": "[1]", "result": 6840, "unit": "MFI"}]}
{"binder": "B8", "values": [{"measurement": "EC50", "setting": "[1]", "result": 0.207, "unit": "µg/mL"}, {"measurement": "Mean maximum fluorescence intensity (Top MFI)", "setting": "[1]", "result": 6890, "unit": "MFI"}]}
{"binder": "B9", "values": [{"measurement": "EC50", "setting": "[2]", "result": 1.14, "unit": "nM"}, {"measurement": "Mean maximum fluorescence intensity (Top MFI)", "setting": "[2]", "result": 10200, "unit": "MFI"}, {"measurement": "ADCC EC50", "setting": "[3]", "result": 0.017, "unit": "µg/mL"}, {"measurement": "ADCC Maximum lysis (%)", "setting": "[3]", "result": 35.5, "unit": "%"}, {"measurement": "CDC EC50", "setting": "[4]", "result": 0.141, "unit": "µg/mL"}, {"measurement": "CDC Maximum lysis (%)", "setting": "[4]", "result": 96.3, "unit": "%"}, {"measurement": "EC50", "setting": "[5]", "result": 2.65, "unit": "nM"}, {"measurement": "Mean maximum fluorescence intensity (Top MFI)", "setting": "[5]", "result": 10900, "unit": "MFI"}, {"measurement": "EC50", "setting": "[6]", "result": 16.8, "unit": "nM"}, {"measurement": "Mean maximum fluorescence intensity (Top MFI)", "setting": "[6]", "result": 17600, "unit": "MFI"}]}
